Assay results taken from article PMC5111854.

Legend:
[1] = molecular target: Cas5c (Desulfovibrio vulgaris str. Hildenborough); experiment: ITC
[2] = molecular target: Cas7 (Desulfovibrio vulgaris str. Hildenborough); experiment: ITC

Kd [1] [µM] | dH [1] [kcal/mol] | stoichiometry N [1] | Kd [2] [µM] | dH [2] [kcal/mol] | Substance
3.8 | 5.1 | 0.59 | – | – | Cas7 (natural protein)
3.9 | 4.8 | 0.57 | 6 | 5.2 | Cas8c (natural protein)
